Measured values reported in the supplement of paper PMC9233669.
Fewer inactive variants are shown than the library holds.

Legend:
biotinyl-Phe-oxazolone = test: self-aminoacylation, catalytic enhancement (BFO) (fold over background); higher = more active; k-Seq, kA / k0A0; sequences stand for … in GGGAAUGGAUCCACAUCUACGAAUUC…UUCACUGCAGACUUGACGAAGCUG
Method in brief: (§1)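 Each biotinyl-aminoacyl-oxazolone, at 2–1250 μM, was incubated with mutagenized RNA pools (0.43 μM) carrying a 21-nt variable region. The 50 μL reactions contained HEPES/NaCl/KCl/MgCl2/CaCl2 buffer with 5% acetonitrile at pH 6.9–7.0 and ran for 90 minutes at room temperature. After streptavidin capture, RNA was measured by qPCR in triplicate and by Illumina sequencing, and catalytic enhancement was calculated as median kA over the uncatalyzed rate from a pseudo-first-order fit of per-sequence fraction reacted.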

biotinyl-Trp-oxazolone = test: self-aminoacylation, catalytic enhancement (BWO) (fold over background); higher = more active; k-Seq, kA / k0A0; sequences stand for … in GGGAAUGGAUCCACAUCUACGAAUUC…UUCACUGCAGACUUGACGAAGCUG
Method in brief: as §1

Sequence | self-aminoacylation (biotinyl-Phe-oxazolone) | self-aminoacylation (biotinyl-Trp-oxazolone)
CCACAGUUCAAACAAUCGGUC [Fam1B.1 aminoacylation ribozyme variant] | 18.2 | 12
CCACCCUUCAAGCCAUCGGUC [Fam1B.1 aminoacylation ribozyme variant] | – | 2.57
CCACGCUUCAAGUAAUCGGUC [Fam1B.1 aminoacylation ribozyme variant] | 18.1 | 12.9
CCACUCUUCAAGCAAUCGGUC [Fam1B.1 aminoacylation ribozyme variant] | 32.1 | 15.1
CCACUUCAAACAAUCGGUAUG [Fam1A.1 aminoacylation ribozyme variant] | 21.3 | 12.7
CCAGACUUCAAGAAAUCGGUC [Fam1B.1 aminoacylation ribozyme variant] | 8.29 | 6.84
CCAGACUUCAAUCAAUCGGUC [Fam1B.1 aminoacylation ribozyme variant] | 34.2 | 21.1
CCAGCCUUCAAGCAAUCGGUC [Fam1B.1 aminoacylation ribozyme variant] | 30.7 | 21.3
CGAAUUCAAACAAUCGGUCUG [Fam1A.1 aminoacylation ribozyme variant] | 4.97 | 3.38
CGACACUUCAAGCAAUCGGUU [Fam1B.1 aminoacylation ribozyme variant] | – | 2.37
CGACUUCAAACAAUCGGACUG [Fam1A.1 aminoacylation ribozyme variant] | 6.95 | 3.53
CGACUUCAAACAAUCGGUCCG [Fam1A.1 aminoacylation ribozyme variant] | 4.63 | 4.64
CGUCACUUCAAGCAAUCGGUC [Fam1B.1 aminoacylation ribozyme variant] | 22 | 11.1
CUACUUCAAAAAAUCGGGCUG [Fam1A.1 aminoacylation ribozyme variant] | 3.05 | 3.06
CUACUUCAAAAAAUCGGUAUG [Fam1A.1 aminoacylation ribozyme variant] | 4.4 | 2.5
CUACUUCAAACAAUCAGUCGG [Fam1A.1 aminoacylation ribozyme variant] | 11.2 | 5.8

Sequence | self-aminoacylation (biotinyl-Phe-oxazolone) | self-aminoacylation (biotinyl-Trp-oxazolone)
CUACUUCAAACAAUCGGUCCC [Fam1A.1 aminoacylation ribozyme variant] | 11.1 | 6.63
CUACUUCAAAUAAUCGGUCUG [Fam1A.1 aminoacylation ribozyme variant] | 18.3 | 10.5
CUACUUCAACAAAUCGGUCUG [Fam1A.1 aminoacylation ribozyme variant] | 7.2 | 5.45
CUACUUCAACCAAUCGGUCGG [Fam1A.1 aminoacylation ribozyme variant] | 14.3 | 8.86
CUACUUCAACUAAUCGGUCUG [Fam1A.1 aminoacylation ribozyme variant] | 12.9 | 8.63
CUCCUUCAAACAAUCGGUCUA [Fam1A.1 aminoacylation ribozyme variant] | 18.5 | 9.25
CUCCUUCAAUCAAUCGGUCUG [Fam1A.1 aminoacylation ribozyme variant] | 24.6 | 18.4
CUGCGUCAAACAAUCGGUCUG [Fam1A.1 aminoacylation ribozyme variant] | 8.22 | 7.19
CUGCUACAAACAAUCGGUCUG [Fam1A.1 aminoacylation ribozyme variant] | 2.73 | 2.27
CUGCUUCAAACAAUCGGUCAG [Fam1A.1 aminoacylation ribozyme variant] | 41.9 | 23
CUGCUUCAAAUAAUCGGUCUG [Fam1A.1 aminoacylation ribozyme variant] | 23.7 | 17.4
CUUCUUCAAACAAUCAGUCUG [Fam1A.1 aminoacylation ribozyme variant] | 12.3 | 5.05
CUUCUUCAAACAAUCGGUUUG [Fam1A.1 aminoacylation ribozyme variant] | 20.7 | 13.8
GAGUUUUCUAAUAGUCGCAAG [Fam3.1 aminoacylation ribozyme variant] | 3.59 | 2.07
GCACACUCCAAGCAAUCGGUC [Fam1B.1 aminoacylation ribozyme variant] | 2.35 | 2.53
GUACUACAAACAAUCGGUCUG [Fam1A.1 aminoacylation ribozyme variant] | – | 2.14
